Measurements taken from paper PMC9371926 (Nucleic Acids Research, 2022).

T1: Methanocaldococcus jannaschii (Mja) RPP30 (Methanocaldococcus jannaschii, UniProt Q58539 1-232)
T1 sequence: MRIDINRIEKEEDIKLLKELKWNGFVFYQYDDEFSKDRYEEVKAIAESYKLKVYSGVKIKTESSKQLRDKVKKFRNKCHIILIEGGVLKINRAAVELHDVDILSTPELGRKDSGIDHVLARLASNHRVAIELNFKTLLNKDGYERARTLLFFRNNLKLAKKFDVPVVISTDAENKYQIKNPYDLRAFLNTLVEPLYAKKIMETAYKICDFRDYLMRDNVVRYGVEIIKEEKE

T2: Methanocaldococcus jannaschii (Mja) RPP21 (Methanocaldococcus jannaschii, UniProt Q58372 1-128)
T2 sequence: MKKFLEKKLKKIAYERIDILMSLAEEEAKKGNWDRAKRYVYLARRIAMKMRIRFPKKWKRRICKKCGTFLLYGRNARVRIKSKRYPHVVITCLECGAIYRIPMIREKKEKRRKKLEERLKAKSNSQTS


Tests used:
Experiment in all cases: native MS
[1] = molecular target: T1, Methanocaldococcus jannaschii (Mja) …
[2] = molecular target: the molecule itself
[3] = molecular target: T2, Methanocaldococcus jannaschii (Mja) …

| Binder | binding result [2] | further results |
| --- | --- | --- |
| Methanocaldococcus jannaschii (Mja) POP5 (natural protein) MIEMLKTLPPTLREKKRYIAFKILYDEELKEGEVVNLIRKAVLEYYGSWGTSKANPWLVYYDFPYGILRCQRDNVDYVKASLILIREFKEKPVNIICLGVSGTIRKAKIKFLGIKKPKRWFVIRRERLKAKKQK | – | binding result [1]: binds |
| Mja POP5·RPP30 binary complex (complex, Methanocaldococcus jannaschii) chain 1: MIEMLKTLPPTLREKKRYIAFKILYDEELKEGEVVNLIRKAVLEYYGSWGTSKANPWLVYYDFPYGILRCQRDNVDYVKASLILIREFKEKPVNIICLGVSGTIRKAKIKFLGIKKPKRWFVIRRERLKAKKQK chain 2: MRIDINRIEKEEDIKLLKELKWNGFVFYQYDDEFSKDRYEEVKAIAESYKLKVYSGVKIKTESSKQLRDKVKKFRNKCHIILIEGGVLKINRAAVELHDVDILSTPELGRKDSGIDHVLARLASNHRVAIELNFKTLLNKDGYERARTLLFFRNNLKLAKKFDVPVVISTDAENKYQIKNPYDLRAFLNTLVEPLYAKKIMETAYKICDFRDYLMRDNVVRYGVEIIKEEKE | binds | – |
| Methanocaldococcus jannaschii (Mja) RPP29 (natural protein) MITPHNILRHELIGLKVEIVEAKNKAMIGIKGKVVDETRNTLVIEKEDGREVVIPKDIAVFLFQLKGCKVKVDGRLLIGRPEERLKKKIKILYPY | – | binding result [3]: binds |
| Mja RPP21·RPP29 binary complex (complex, Methanocaldococcus jannaschii) chain 1: MKKFLEKKLKKIAYERIDILMSLAEEEAKKGNWDRAKRYVYLARRIAMKMRIRFPKKWKRRICKKCGTFLLYGRNARVRIKSKRYPHVVITCLECGAIYRIPMIREKKEKRRKKLEERLKAKSNSQTS chain 2: MITPHNILRHELIGLKVEIVEAKNKAMIGIKGKVVDETRNTLVIEKEDGREVVIPKDIAVFLFQLKGCKVKVDGRLLIGRPEERLKKKIKILYPY | binds | – |
